In patent publication US20250163127A1:
Substitutions are numbered along the chain they refer to. Numbers in names are those of the source. Blank lines part the entries; values can stand above or below the binder they belong to.

Legend:
Experiment in all cases: flow cytometry, transfected cells
[1] = biological target: CTLA-4 (Homo sapiens (Human)) (UniProt P16410)
CD28 (human) = CD28 (human) (UniProt P10747)
[2] = substrate: ICOS (Homo sapiens (Human)) (UniProt Q9Y6W8)
Chain of ICOS (Homo sapiens (Human)) (Q9Y6W8 21-199 limits assumed): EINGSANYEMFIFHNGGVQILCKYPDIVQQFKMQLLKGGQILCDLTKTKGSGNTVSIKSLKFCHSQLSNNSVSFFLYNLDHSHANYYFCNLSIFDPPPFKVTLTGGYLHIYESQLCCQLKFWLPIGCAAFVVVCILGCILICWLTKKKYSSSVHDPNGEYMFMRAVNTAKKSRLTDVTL

Chain of CTLA-4 (Homo sapiens (Human)) (P16410 36-223): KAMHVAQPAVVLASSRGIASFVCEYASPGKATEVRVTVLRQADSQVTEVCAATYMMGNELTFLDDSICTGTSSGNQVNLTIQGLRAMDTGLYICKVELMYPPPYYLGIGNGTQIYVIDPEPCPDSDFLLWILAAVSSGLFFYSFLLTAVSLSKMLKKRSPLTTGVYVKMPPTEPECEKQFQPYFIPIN

B2: ICOSL-Fc N52P/N57S/Q100G (Fc fusion)
chain: DTQEKEVRAMVGSDVELSCACPEGSRFDLNDVYVYWQTSESKTVVTYHIPQPSSLESVDSRYRNRALMSPAGMLRGDFSLRLFNVTPQDEQKFHCLVLSGSLGFQEVLSVEVTLHVAANFSVPVVSAPHSPSQDELTFTCTSINGYPRPNVYWINKTDNSLLDQALQNDTVFLNMRGLYDVVSVLRIARTPSVNIGCCIENVLLQQNLTVGSQTGNDIGERDKITENPVSTGEKNAAT
- MFI [1]: 5050 MFI
- MFI ratio to WT (ΔWT) [1]: 0.02 fold
- MFI (CD28 (human)): 6800 MFI
- MFI ratio to WT (ΔWT) (CD28 (human)): 0.3 fold
- MFI [2]: 143000 MFI
- MFI ratio to WT (ΔWT) [2]: 0.68 fold

B3: ICOSL-Fc N52L/N57H/Q100R (Fc fusion)
chain: B2 chain with P52L, S57H, G100R
- MFI [1]: 353000 MFI
- MFI ratio to WT (ΔWT) [1]: 1.07 fold
- MFI (CD28 (human)): 141000 MFI
- MFI ratio to WT (ΔWT) (CD28 (human)): 6.3 fold
- MFI [2]: 250000 MFI
- MFI ratio to WT (ΔWT) [2]: 1.18 fold

B4: ICOSL-Fc N52R/N57F/Q100T (Fc fusion)
chain: B2 chain with P52R, S57F, G100T
- MFI [1]: 358000 MFI
- MFI ratio to WT (ΔWT) [1]: 1.08 fold
- MFI (CD28 (human)): 127000 MFI
- MFI ratio to WT (ΔWT) (CD28 (human)): 5.7 fold
- MFI [2]: 270000 MFI
- MFI ratio to WT (ΔWT) [2]: 1.27 fold

B6: ICOSL-Fc N52L/N57V (Fc fusion)
chain: B2 chain with P52L, S57V, G100Q
- MFI [1]: 151000 MFI
- MFI ratio to WT (ΔWT) [1]: 0.46 fold
- MFI (CD28 (human)): 54800 MFI
- MFI ratio to WT (ΔWT) (CD28 (human)): 2.5 fold
- MFI [2]: 257000 MFI
- MFI ratio to WT (ΔWT) [2]: 1.21 fold

B9: ICOSL-Fc N52G/N57V/Q100G (Fc fusion)
chain: B2 chain with P52G, S57V
- MFI [1]: 14700 MFI
- MFI ratio to WT (ΔWT) [1]: 0.04 fold
- MFI (CD28 (human)): 23700 MFI
- MFI ratio to WT (ΔWT) (CD28 (human)): 1.1 fold
- MFI [2]: 260000 MFI
- MFI ratio to WT (ΔWT) [2]: 1.23 fold

B10: ICOSL-Fc N52C/N57E/Q100S (Fc fusion)
chain: B2 chain with P52C, S57E, G100S
- MFI [1]: 10600 MFI
- MFI ratio to WT (ΔWT) [1]: 0.03 fold
- MFI (CD28 (human)): 13400 MFI
- MFI ratio to WT (ΔWT) (CD28 (human)): 0.6 fold
- MFI [2]: 125000 MFI
- MFI ratio to WT (ΔWT) [2]: 0.59 fold

B12: ICOSL-Fc N52G/N57V (Fc fusion)
chain: B2 chain with P52G, S57V, G100Q
- MFI [1]: 52500 MFI
- MFI ratio to WT (ΔWT) [1]: 0.16 fold
- MFI (CD28 (human)): 69100 MFI
- MFI ratio to WT (ΔWT) (CD28 (human)): 3.1 fold
- MFI [2]: 332000 MFI
- MFI ratio to WT (ΔWT) [2]: 1.57 fold

B13: ICOSL-Fc N52K/N57Y/Q100R (Fc fusion)
chain: B2 chain with P52K, S57Y, G100R
- MFI [1]: 233000 MFI
- MFI ratio to WT (ΔWT) [1]: 0.71 fold
- MFI (CD28 (human)): 141000 MFI
- MFI ratio to WT (ΔWT) (CD28 (human)): 6.3 fold
- MFI [2]: 199000 MFI
- MFI ratio to WT (ΔWT) [2]: 0.94 fold

The next lines start with the values.

- MFI [1]: 289000 MFI
- MFI ratio to WT (ΔWT) [1]: 0.88 fold
- MFI (CD28 (human)): 112000 MFI
- MFI ratio to WT (ΔWT) (CD28 (human)): 5 fold
- MFI [2]: 231000 MFI
- MFI ratio to WT (ΔWT) [2]: 1.09 fold
B1: ICOSL-Fc N52R/N57L/Q100S (Fc fusion)
chain: B2 chain with P52R, S57L, G100S

- MFI [1]: 477000 MFI
- MFI ratio to WT (ΔWT) [1]: 1.44 fold
- MFI (CD28 (human)): 131000 MFI
- MFI ratio to WT (ΔWT) (CD28 (human)): 5.9 fold
- MFI [2]: 349000 MFI
- MFI ratio to WT (ΔWT) [2]: 1.65 fold
B5: ICOSL-Fc N52R/N57W/Q100K (Fc fusion)
chain: B2 chain with P52R, S57W, G100K

- MFI [1]: 69100 MFI
- MFI ratio to WT (ΔWT) [1]: 0.21 fold
- MFI (CD28 (human)): 15200 MFI
- MFI ratio to WT (ΔWT) (CD28 (human)): 0.7 fold
- MFI [2]: 205000 MFI
- MFI ratio to WT (ΔWT) [2]: 0.97 fold
B7: ICOSL-Fc N57Q/Q100P (Fc fusion)
chain: B2 chain with P52N, S57Q, G100P

- MFI [1]: 4270 MFI
- MFI ratio to WT (ΔWT) [1]: 0.01 fold
- MFI (CD28 (human)): 3280 MFI
- MFI ratio to WT (ΔWT) (CD28 (human)): 0.1 fold
- MFI [2]: 6100 MFI
- MFI ratio to WT (ΔWT) [2]: 0.03 fold
B8: ICOSL-Fc N52R/N57Y/Q100R (Fc fusion)
chain: B2 chain with P52R, S57Y, G100R

- MFI [1]: 350000 MFI
- MFI ratio to WT (ΔWT) [1]: 1.06 fold
- MFI (CD28 (human)): 113000 MFI
- MFI ratio to WT (ΔWT) (CD28 (human)): 5 fold
- MFI [2]: 220000 MFI
- MFI ratio to WT (ΔWT) [2]: 1.04 fold
B11: ICOSL-Fc N52T/N57H/Q100A (Fc fusion)
chain: B2 chain with P52T, S57H, G100A

- MFI [1]: 11500 MFI
- MFI ratio to WT (ΔWT) [1]: 0.03 fold
- MFI (CD28 (human)): 6200 MFI
- MFI ratio to WT (ΔWT) (CD28 (human)): 0.3 fold
- MFI [2]: 29200 MFI
- MFI ratio to WT (ΔWT) [2]: 0.14 fold
B14: ICOSL-Fc N52V/N57T/Q100L (Fc fusion)
chain: B2 chain with P52V, S57T, G100L
